Assay results reported in article PMC2824085 (2010).

Molecular target: Man9GlcNAc2 glycopeptide isolated from soybean agglutinin (soybean, UniProt P05046, Man9GlcNAc2 oligosaccharide, N-linked)
Experiment: SPR; glycopeptide immobilized

Man9GlcNAc2 glycopeptide isolated from soybean agglutinin, sequence (P05046 whole entry): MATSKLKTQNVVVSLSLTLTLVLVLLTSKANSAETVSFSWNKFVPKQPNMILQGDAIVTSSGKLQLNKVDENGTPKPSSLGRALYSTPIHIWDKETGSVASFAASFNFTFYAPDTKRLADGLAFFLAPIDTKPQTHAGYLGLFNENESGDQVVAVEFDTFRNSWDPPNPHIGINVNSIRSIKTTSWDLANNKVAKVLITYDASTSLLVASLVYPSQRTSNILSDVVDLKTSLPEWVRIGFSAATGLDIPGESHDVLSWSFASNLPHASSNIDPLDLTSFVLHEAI

Kd: 66 µM
B1: monomeric carbohydrate-recognition domain (CRD) from DC-SIGN (domain or fragment)
chain: ERLCHPCPWEWTFFQGNCYFMSNSQRNWHDSITACKEVGAQLVVIKSAEEQNFLQLQSSRSNRFTWMGLSDLNQEGTWQWVDGSPLLPSFKQYWNRGEPNNVGEEDCAEFSGNGWNDDKCNLAKFWICKKSAASCSRDEEQFLSPAPATPNPPPA
